Reference: patent US20220026415A1 (NATIONAL CANCER CENTER, published 2022)

Experiments:
Assay in all cases: immunoprecipitation with anti-RARRES1 antibody from RARRES1-transfected HEK293 cells with or without nocodazole, immunoblot
[1] = target: CDK4 (endogenous, HEK293 cells) (UniProt P11802 2-303)
Experimental: (§1) The cells were lysed in a lysis buffer (20 mM Tris, pH 7.4, 5 mM EDTA, 10 mM Na₄ P₂O₇, 100 mM NaF, 1% NP-40, 1 mM PMSF, 0.2% protease inhibitor cocktail and phosphatase inhibitor). The protein concentrations of the cell lysates were measured using a Pierce BCA Protein Assay kit (Pierce, Rockford, USA). Subsequently, protein lysates were resuspended in a loading buffer, boiled for 5 minutes, and then subjected to SDS-PAGE and immunoblotting with the indicated antibodies. For immunoprecipitation, a TAP buffer (25 mM Tris, pH 7.4, 140 mM NaCl, 0.5% NP-40, 10 mM NaF, 1 mM dithiothreitol (DTT), 1 mM phenylmethylsulphonyl fluoride, 1 mM EDTA, 1 mM Na₃VO₄, 1 mM β-glycerophosphate, 10% glycerol and 0.2% protease inhibitor cocktail and phosphatase inhibitor) was added to the cell lysates, and then the cell lysates were incubated along with a RARRES1 antibody (R & D System, MN, USA) or GST beads at 4° C. Protein expression was detected by chemiluminescence using the SuperSignal West Pico Chemiluminescent Substrate (Pierce).
(§2) In addition, it was examined whether RARRES1 interacted with other CDK-Cyclin complexes, including interphase CDKs (CDK2, CDK4, and CDK6) and their binding partner Cyclins, and immunoprecipitation according to Example 1-8 was performed on 293 cells under the same conditions as those in FIG. 7C.

[2] = target: CDK2 (endogenous, HEK293 cells) (UniProt P24941 1-298)
Experimental: as §1, §2

[3] = target: T1, Cyclin D (endogenous, HEK293 cells) (UniProt P24385 1-295, limits assumed)
T1 construct: Printed only as 'Cyclin D'; Cyclin D1 is inferred from the antibody list; also called Cyclin D1
Experimental: as §1, §2

[4] = target: Cyclin A (endogenous, HEK293 cells) (UniProt P20248 1-432, limits assumed)
Experimental: as §1, §2

Sequence of Cyclin A (endogenous, HEK293 cells) (P20248 whole entry): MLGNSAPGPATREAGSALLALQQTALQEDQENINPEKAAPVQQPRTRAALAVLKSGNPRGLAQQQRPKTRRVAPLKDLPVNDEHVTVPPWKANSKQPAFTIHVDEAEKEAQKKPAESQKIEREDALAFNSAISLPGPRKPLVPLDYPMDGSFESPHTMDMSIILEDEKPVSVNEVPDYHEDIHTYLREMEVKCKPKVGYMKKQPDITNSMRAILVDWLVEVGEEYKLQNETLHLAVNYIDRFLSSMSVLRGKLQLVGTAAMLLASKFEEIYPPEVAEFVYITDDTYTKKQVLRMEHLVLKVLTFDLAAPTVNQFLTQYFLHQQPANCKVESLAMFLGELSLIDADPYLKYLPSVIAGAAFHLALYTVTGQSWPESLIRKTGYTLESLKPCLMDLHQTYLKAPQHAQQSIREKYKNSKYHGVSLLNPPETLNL
T1 sequence (P24385 whole entry): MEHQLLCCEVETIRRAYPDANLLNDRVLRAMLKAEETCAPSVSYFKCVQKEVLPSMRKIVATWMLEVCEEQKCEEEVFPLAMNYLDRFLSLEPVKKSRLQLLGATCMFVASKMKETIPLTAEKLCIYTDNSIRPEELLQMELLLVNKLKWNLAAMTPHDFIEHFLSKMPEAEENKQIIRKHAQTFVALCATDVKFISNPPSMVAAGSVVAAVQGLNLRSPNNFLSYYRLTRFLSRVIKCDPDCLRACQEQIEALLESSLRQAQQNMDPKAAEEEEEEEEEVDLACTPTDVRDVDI
Sequence of CDK4 (endogenous, HEK293 cells) (P11802 2-303 limits assumed): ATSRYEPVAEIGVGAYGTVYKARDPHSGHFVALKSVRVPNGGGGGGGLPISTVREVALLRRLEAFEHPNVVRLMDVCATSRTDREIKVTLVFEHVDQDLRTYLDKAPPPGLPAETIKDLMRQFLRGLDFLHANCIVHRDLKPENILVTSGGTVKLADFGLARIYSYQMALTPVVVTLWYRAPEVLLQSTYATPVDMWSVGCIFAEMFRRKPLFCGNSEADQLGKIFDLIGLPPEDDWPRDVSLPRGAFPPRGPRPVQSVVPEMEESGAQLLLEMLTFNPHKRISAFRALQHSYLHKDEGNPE

binding result [1]: no binding
binding result [2]: no binding
binding result [3]: no binding
binding result [4]: no binding
B1: retinoic acid receptor responder 1 (RARRES1), isoform 1, wild type, overexpressed in HEK293 cells (other)
chain: MQPRRQRLPAPWSGPRGPRPTAPLLALLLLLAPVAAPAGSGDPDDPGQPQDAGVPRRLLQQAARAALHFFNFRSGSPSALRVLAEVQEGRAWINPKEGCKVHVVFSTERYNPESLLQEGEGRLGKCSARVFFKNQKPRPTINVTCTRLIEKKKRQQEDYLLYKQMKQLKNPLEIVSIPDNHGHIDPSLRLIWDLAFLGSSYVMWEMTTQVSHYYLAQLTSVRQWKTNDDTIDFDYTVLLHELSTQEIIPCRIHLVWYPGKPLKVKYHCQELQTPEEASGTEEGSAVVPTELSNF
notes: also called RARRES1-1
